This series is described as follows: protein stability index of a GFP-peptide fusion (yeast GPS) (PSI 1-4); higher = more stable; sorted into four equal gates, so the index is relative within each strain. In outline: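 Tiled yeast protein peptides of 17 residues were each joined downstream of GFP, on plasmids that also express Cherry. The pooled library was maintained in yeast, and mid-log cultures in leucine-free medium were sorted into four equal gates on the GFP/Cherry ratio. Plasmids from every gate were amplified by PCR and sequenced on Illumina, with barcodes linking reads to strains. The protein stability index of a peptide is its gate-number-weighted read frequency summed over the gates.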

± gives the uncertainty stated by the source.

Turning to AAESKKYRQTKLSKEER [RPL5], the protein stability index is 3.1 ± 0.23 (doa10∆), 3.05 ± 0.22 (san1∆) and 3.06 ± 0.26 (ubr1∆).
As for IGLLNKSKSSLDGKFSL [RPN2], the protein stability index stood at 2.67 ± 0.089 (doa10∆), 2.85 ± 0.15 (pdr5∆), 2.5 ± 0.14 (san1∆) and 2.74 ± 0.093 (ubr1∆).
On to NASGNKRSGVIETVDDK [ITC1], for which the protein stability index came to 2.55 ± 0.09 (doa10∆), 2.58 ± 0.097 (pdr5∆), 2.27 ± 0.12 (san1∆) and 2.45 ± 0.052 (ubr1∆).
As to IVPGTYIQERNPSQRPQ [RPS10B], the protein stability index is 3.01 ± 0.055 (doa10∆), 3.07 ± 0.045 (pdr5∆), 3.08 ± 0.037 (san1∆) and 3.26 ± 0.038 (ubr1∆).
As for VIAHLTVEALDFREKAL [RET1], the protein stability index is, setting by setting: (doa10∆) 2.79 ± 0.11; (pdr5∆) 2 ± 0.058; (san1∆) 2.12 ± 0.1; (ubr1∆) 2.57 ± 0.062.
In the case of SIEVQSLPEFFTNRIPS [SWI3], the protein stability index reads like this: (doa10∆) 2.64 ± 0.055; (pdr5∆) 2.66 ± 0.048; (san1∆) 2.51 ± 0.064; (ubr1∆) 2.61 ± 0.047.
Turning to GRDKHALSLLYHLLNYD [SSN3], the protein stability index came to 2.91 ± 0.074 (doa10∆), 2.92 ± 0.057 (pdr5∆), 2.94 ± 0.054 (san1∆) and 3.04 ± 0.064 (ubr1∆).
As for KEGASTNWDDHAIIIFG [YMR153W/NUP53], the protein stability index was determined as 2.86 ± 0.094 (doa10∆), 3.05 ± 0.075 (pdr5∆), 3.27 ± 0.095 (san1∆) and 2.59 ± 0.059 (ubr1∆).
As for SLIKETNQLVLLQKMLN [YML103C/NUP188], the protein stability index is, setting by setting: (pdr5∆) 1.29 ± 0.094; (san1∆) 1.06 ± 0.096; (ubr1∆) 1.02 ± 0.077.
Turning to LIKQVPRLLGPQLSKAG [RPL1A], the protein stability index worked out at 1.98 ± 0.068 (doa10∆), 1.73 ± 0.06 (pdr5∆), 1.78 ± 0.081 (san1∆) and 1.6 ± 0.059 (ubr1∆).
EVDYEDKDNPVDSRNET [SRB4] showed a protein stability index (doa10∆) of 3.46 ± 0.19, a protein stability index (pdr5∆) of 2.99 ± 0.17, a protein stability index (san1∆) of 3.47 ± 0.12 and a protein stability index (ubr1∆) of 3.33 ± 0.25.
Take AKTFGASVRIFLYPSNI [RPL33A]: the protein stability index by setting is: (doa10∆) 2.38 ± 0.057; (pdr5∆) 2.65 ± 0.056; (san1∆) 2.5 ± 0.066; (ubr1∆) 2.59 ± 0.054.
For the sequence EGYGLRDVMCTDGVIGS [RPO31], the protein stability index (doa10∆) was determined as 2.35 ± 0.11, the protein stability index (pdr5∆) was determined as 3.29 ± 0.14, the protein stability index (san1∆) worked out at 2.58 ± 0.14 and the protein stability index (ubr1∆) is 2.84 ± 0.06.
Take FLPFNNSASNNGNLTSN [SWI1]: the protein stability index is 2.94 ± 0.093 (doa10∆), 3.02 ± 0.094 (pdr5∆), 3.07 ± 0.058 (san1∆) and 2.9 ± 0.099 (ubr1∆).
As to VLNEDDLAFGGEANKHH [RPN5], the protein stability index was 3.25 ± 0.09 (doa10∆), 3.13 ± 0.089 (pdr5∆), 3.25 ± 0.057 (san1∆) and 3.48 ± 0.12 (ubr1∆).
For the sequence NEKFEIELLSLDDDSIV [SRB4], the protein stability index reads like this: (doa10∆) 2.58 ± 0.096; (pdr5∆) 3.07 ± 0.093; (san1∆) 2.72 ± 0.081; (ubr1∆) 3.1 ± 0.1.
Take DVKISNDFFDNGDNLYG [RPN4]: the protein stability index is, setting by setting: (doa10∆) 2.39 ± 0.086; (pdr5∆) 2.93 ± 0.063; (san1∆) 2.67 ± 0.12; (ubr1∆) 1.69 ± 0.057.
As to KTKKEKGPNEEEKKKEH [RPN2], the protein stability index reads like this: (doa10∆) 3.05 ± 0.28; (pdr5∆) 3.32 ± 0.16; (san1∆) 3.49 ± 0.081; (ubr1∆) 3.13 ± 0.19.
The sequence QLDSYLVNGFSQSQQKL [MED2] yielded a protein stability index (doa10∆) of 2.02 ± 0.05, a protein stability index (pdr5∆) of 2.35 ± 0.063, a protein stability index (san1∆) of 2.38 ± 0.064 and a protein stability index (ubr1∆) of 2.72 ± 0.046.
As to VIITDGTLLREDDNTPA [YDL088C/ASM4], the protein stability index came out at 2.94 ± 0.077 (doa10∆), 2.9 ± 0.081 (pdr5∆), 2.94 ± 0.056 (san1∆) and 3.01 ± 0.042 (ubr1∆).
Take ASLKHDNETKAMLINLI [RPN3]: the protein stability index was 2.85 ± 0.28 (doa10∆), 3.21 ± 0.27 (pdr5∆), 2.8 ± 0.13 (san1∆) and 2.77 ± 0.29 (ubr1∆).
For RSRMLPTITLDDVYRPA [SNF5] the same measures were 3.12 ± 0.081, 3.43 ± 0.085, 3.04 ± 0.075 and 3.06 ± 0.077.
In the same order, the values of SIHVNRVERSSRSTDNF [RRI1] are 3.32 ± 0.074, 3.18 ± 0.069, 3.03 ± 0.058 and 3.02 ± 0.051.
Consider YSALNSTYLPKLISAFD [RRP42], for which the protein stability index was 2.69 ± 0.068 (doa10∆), 2.41 ± 0.06 (pdr5∆), 2.57 ± 0.06 (san1∆) and 2.39 ± 0.055 (ubr1∆).
In the case of FFAAIRFVLSDDYSNLK [SMC3], the protein stability index by setting is: (doa10∆) 2.27 ± 0.091; (pdr5∆) 2.68 ± 0.13; (san1∆) 2.56 ± 0.1; (ubr1∆) 2.7 ± 0.07.
